How the values were obtained:
S1 (SARS-CoV-2) = S1 (SARS-CoV-2) (UniProt P0DTC2); test: SPR
Yu gp120 = test: SPR

Row | Substance | Kd (S1 (SARS-CoV-2)) | Kd (Yu gp120)
1 | ACE2 | 2.4 nM | –
2 | P51G-CVN-HIS(OK) | – | 22.8 nM
